± gives the standard deviation of the averaged measurements.
Assay: total protein half-life in vivo (active degradation + dilution); higher = more stable protein
[1] = E. coli NCM3722 delta-clpP delta-lon delta-hslV, growth: N-lim chemostat, doubling time 6 h
[2] = E. coli NCM3722 delta-clpP, growth: N-lim chemostat, doubling time 6 h
[3] = E. coli NCM3722 delta-hslV, growth: N-lim chemostat, doubling time 6 h
[4] = E. coli NCM3722 delta-smpB, growth: N-lim chemostat, doubling time 6 h
[5] = wild type E. coli NCM3722, growth: C-lim chemostat, doubling time 3 h
[6] = wild type E. coli NCM3722, growth: C-lim chemostat, doubling time 6 h
[7] = wild type E. coli NCM3722, growth: C-lim chemostat, doubling time 12 h
[8] = wild type E. coli NCM3722, growth: N-lim chemostat, doubling time 6 h
[9] = wild type E. coli NCM3722, growth: N-lim chemostat, doubling time 12 h
[10] = wild type E. coli NCM3722, growth: P-lim chemostat, doubling time 6 h
[11] = wild type E. coli NCM3722, growth: P-lim chemostat, doubling time 12 h
[12] = E. coli NCM3722 delta-lon, growth: N-lim chemostat, doubling time 6 h

Sequence | total protein half-life in vivo [1] [h] | total protein half-life in vivo [2] [h] | total protein half-life in vivo [3] [h] | total protein half-life in vivo [4] [h] | total protein half-life in vivo [5] [h] | total protein half-life in vivo [6] [h] | total protein half-life in vivo [7] [h] | total protein half-life in vivo [8] [h] | total protein half-life in vivo [9] [h] | total protein half-life in vivo [10] [h] | total protein half-life in vivo [11] [h] | total protein half-life in vivo [12] [h]
MKKTAAIISACMLTFALSACSGSNYVMHTNDGRTIVSDGKPQTDNDTGMISYKDANGNKQQINRTDVKEMVELDQ | 5.09 ± 0.4 | 5.11 ± 0.78 | 5.48 ± 0.12 | 5.68 ± 1.2 | 3.35 ± 0.3 | 5.25 ± 0.68 | 10.3 ± 0.96 | 5.312 ± 0.043 | 11.3 | 4.83 ± 0.12 | 11.1 ± 0.28 | 
MKKTTLALSALALSLGLALSPLSATAAETSSATTAQQMPSLAPMLEKVMPSVVSINVEGSTTVNTPRMPRNFQQFFGDDSPFCQEGSPFQSSPFCQGGQGGNGGGQQQKFMALGSGVIIDADKGYVVTNNHVVDNATVIKVQLSDGRKFDAKMVGKDPRSDIALIQIQNPKNLTAIKMADSDALRVGDYTVAIGNPFGLGETVTSGIVSALGRSGLNAENYENFIQTDAAINRGNSGGALVNLNGELIGINTAILAPDGGNIGIGFAIPSNMVKNLTSQMVEYGQVKRGELGIMGTELNSELAKAMKVDAQRGAFVSQVLPNSSAAKAGIKAGDVITSLNGKPISSFAALRAQVGTMPVGSKLTLGLLRDGKQVNVNLELQQSSQNQVDSSSIFNGIEGAEMSNKGKDQGVVVNNVKTGTPAAQIGLKKGDVIIGANQQAVKNIAELRKVLDSKPSVLALNIQRGDSTIYLLMQ [P0C0V0] | 5.66 ± 0.5 | 5.71 ± 0.21 | 6.05 ± 0.44 | 5.87 ± 0.45 | 2.97 ± 0.12 | 5.88 ± 0.28 | 10.9 ± 0.37 | 5.86 ± 0.23 | 11.5 ± 0.38 | 5.75 ± 0.2 | 11.4 ± 0.4 | 5.85 ± 0.21
MKKVAIVGLGWLGMPLAMSLSARGWQVTGSKTTQDGVEAARMSGIDSYLLRMEPELVCDSDDLDALMDADALVITLPARRSGPGDEFYLQAVQELVDSALAHRIPRIIFTSSTSVYGDAQGTVKETTPRNPVTNSGRVLEELEDWLHNLPGTSVDILRLAGLVGPGRHPGRFFAGKTAPDGEHGVNLVHLEDVIGAITLLLQAPKGGHIYNICAPAHPARNVFYPQMARLLGLEPPQFRNSLDSGKGKIIDGSRICNELGFEYQYPDPLVMPLE [P0AD12] | 4.79 ± 0.29 | 4.52 ± 0.45 | 4.63 ± 0.4 | 4.5 ± 0.096 | 3.06 ± 0.16 | 5.019 ± 0.0077 | 8.76 ± 1.2 | 4.35 ± 0.44 | 7.41 ± 0.52 | 5.61 ± 0.32 | 11.1 ± 0.28 | 5.07 ± 0.57
MKKVLIAALIAGFSLSATAAETIRFATEASYPPFESIDANNQIVGFDVDLAQALCKEIDATCTFSNQAFDSLIPSLKFRRVEAVMAGMDITPEREKQVLFTTPYYDNSALFVGQQGKYTSVDQLKGKKVGVQNGTTHQKFIMDKHPEITTVPYDSYQNAKLDLQNGRIDGVFGDTAVVTEWLKDNPKLAAVGDKVTDKDYFGTGLGIAVRQGNTELQQKLNTALEKVKKDGTYETIYNKWFQK | 5.31 ± 0.27 | 5.44 ± 0.31 | 6.55 ± 0.075 | 6.01 ± 0.43 | 3.16 ± 0.44 | 5.9 ± 0.34 | 11.55 ± 0.079 | 5.64 ± 0.36 | 12.2 ± 0.92 | 6.04 ± 0.31 | 12.2 ± 0.73 | 7.11 ± 0.09
MKKVLLIILLLLVVLGIAAGVGVWKVRHLADSKLLIKEETIFTLKPGTGRLALGEQLYADKIINRPRVFQWLLRIEPDLSHFKAGTYRFTPQMTVREMLKLLESGKEAQFPLRLVEGMRLSDYLKQLREAPYIKHTLSDDKYATVAQALELENPEWIEGWFWPDTWMYTANTTDVALLKRAHKKMVKAVDSAWEGRADGLPYKDKNQLVTMASIIEKETAVASERDKVASVFINRLRIGMRLQTDPTVIYGMGERYNGKLSRADLETPTAYNTYTITGLPPGAIATPGADSLKAAAHPAKTPYLYFVADGKGGHTFNTNLASHNKSVQDYLKVLKEKNAQ | 6.33 ± 0.68 | 6.52 ± 1.1 | 6.8 ± 0.6 | 6.22 ± 0.74 | 3.49 ± 0.33 | 6.65 ± 0.64 | 12.7 ± 1.6 | 6.34 ± 0.68 | 12.4 ± 1.7 | 6 ± 0.25 | 12 ± 0.45 | 6.58 ± 0.69
MKKVTAMLFSMAVGLNAVSMAAKAKASEEQETDVLLIGGGIMSATLGTYLRELEPEWSMTMVERLEGVAQESSNGWNNAGTGHSALMELNYTPQNADGSISIEKAVAINEAFQISRQFWAHQVERGVLRTPRSFINTVPHMSFVWGEDNVNFLRARYAALQQSSLFRGMRYSEDHAQIKEWAPLVMEGRDPQQKVAATRTEIGTDVNYGEITRQLIASLQKKSNFSLQLSSEVRALKRNDDNTWTVTVADLKNGTAQNIRAKFVFIGAGGAALKLLQESGIPEAKDYAGFPVGGQFLVSENPDVVNHHLAKVYGKASVGAPPMSVPHIDTRVLDGKRVVLFGPFATFSTKFLKNGSLWDLMSSTTTSNVMPMMHVGLDNFDLVKYLVSQVMLSEEDRFEALKEYYPQAKKEDWRLWQAGQRVQIIKRDAEKGGVLRLGTEVVSDQQGTIAALLGASPGASTAAPIMLNLLEKVFGDRVSSPQWQATLKAIVPSYGRKLNGDVAATERELQYTSEVLGLNYDKPQAADSTPKPQLKPQPVQKEVADIAL | 3.81 ± 0.31 | 2.29 ± 0.29 | 1.1 ± 0.013 | 1.15 ± 0.2 |  |  |  | 1.19 ± 0.58 | 1.46 ± 0.27 |  |  | 0.95
MKKVVTVCPYCASGCKINLVVDNGKIVRAEAAQGKTNQGTLCLKGYYGWDFINDTQILTPRLKTPMIRRQRGGKLEPVSWDEALNYVAERLSAIKEKYGPDAIQTTGSSRGTGNETNYVMQKFARAVIGTNNVDCCARVUHGPSVAGLHQSVGNGAMSNAINEIDNTDLVFVFGYNPADSHPIVANHVINAKRNGAKIIVCDPRKIETARIADMHIALKNGSNIALLNAMGHVIIEENLYDKAFVASRTEGFEEYRKIVEGYTPESVEDITGVSASEIRQAARMYAQAKSAAILWGMGVTQFYQGVETVRSLTSLAMLTGNLGKPHAGVNPVRGQNNVQGACDMGALPDTYPGYQYVKDPANREKFAKAWGVESLPAHTGYRISELPHRAAHGEVRAAYIMGEDPLQTDAELSAVRKAFEDLELVIVQDIFMTKTASAADVILPSTSWGEHEGVFTAADRGFQRFFKAVEPKWDLKTDWQIISEIATRMGYPMHYNNTQEIWDELRHLCPDFYGATYEKMGELGFIQWPCRDTSDADQGTSYLFKEKFDTPNGLAQFFTCDWVAPIDKLTDEYPMVLSTVREVGHYSCRSMTGNCAALAALADEPGYAQINTEDAKRLGIEDEALVWVHSRKGKIITRAQVSDRPNKGAIYMTYQWWIGACNELVTENLSPITKTPEYKYCAVRVEPIADQRAAEQYVIDEYNKLKTRLREAALA | 4.17 ± 0.28 |  |  |  |  |  |  |  |  |  |  | 
MKKYQQLAEQLREQIASGIWQPGDRLPSLRDQVALSGMSFMTVSHAYQLLESQGYIIARPQSGYYVAPQAIKMPKAPVIPVTRDEAVDINTYIFDMLQASRDPSVVPFASAFPDPRLFPLQQLNRSLAQVSKTATAMSVIENLPPGNAELRQAIARRYALQGITISPDEIVITAGALEALNLSLQAVTEPGDWVIVENPCFYGALQALERLRLKALSVATDVKEGIDLQALELALQEYPVKACWLMTNSQNPLGFTLTPQKKAQLVALLNQYNVTLIEDDVYSELYFGREKPLPAKAWDRHDGVLHCSSFSKCLVPGFRIGWVAAGKHARKIQRLQLMSTLSTSSPMQLALVDYLSTRRYDAHLRRLRRQLAERKQRAWQALLRYLPAEVKIHHNDSGYFLWLELPEPLDAGELSLAALTHHISIAPGKMFSTGENWSRFFRFNTAWQWGEREEQAVKQLGKLIQERL | 5.76 ± 0.15 | 6.15 ± 0.15 | 6.01 ± 0.29 | 5.54 ± 0.38 | 3.02 ± 0.075 | 5.42 ± 0.59 | 10.5 ± 0.68 | 5.45 ± 0.55 | 13.1 ± 2.8 | 6.52 ± 0.27 | 14.3 ± 2.1 | 6.09 ± 0.51
MKLAVYSTKQYDKKYLQQVNESFGFELEFFDFLLTEKTAKTANGCEAVCIFVNDDGSRPVLEELKKHGVKYIALRCAGFNNVDLDAAKELGLKVVRVPAYDPEAVAEHAIGMMMTLNRRIHRAYQRTRDANFSLEGLTGFTMYGKTAGVIGTGKIGVAMLRILKGFGMRLLAFDPYPSAAALELGVEYVDLPTLFSESDVISLHCPLTPENYHLLNEAAFEQMKNGVMIVNTSRGALIDSQAAIEALKNQKIGSLGMDVYENERDLFFEDKSNDVIQDDVFRRLSACHNVLFTGHQAFLTAEALTSISQTTLQNLSNLEKGETCPNELV | 4.95 ± 0.5 | 5.65 ± 1.9 | 4.53 ± 0.051 | 4.57 ± 0.16 | 3.08 ± 0.3 | 5.97 ± 0.49 | 11.3 ± 0.19 | 4.64 ± 0.38 | 7.53 ± 0.61 | 5.67 ± 0.38 | 12.3 ± 0.16 | 5.26 ± 0.41
MKLDEIARLAGVSRTTASYVINGKAKQYRVSDKTVEKVMAVVREHNYHPNAVAAGLRAGRTRSIGLVIPDLENTSYTRIANYLERQARQRGYQLLIACSEDQPDNEMRCIEHLLQRQVDAIIVSTSLPPEHPFYQRWANDPFPIVALDRALDREHFTSVVGADQDDAEMLAEELRKFPAETVLYLGALPELSVSFLREQGFRTAWKDDPREVHFLYANSYEREAAAQLFEKWLETHPMPQALFTTSFALLQGVMDVTLRRDGKLPSDLAIATFGDNELLDFLQCPVLAVAQRHRDVAERVLEIVLASLDEPRKPKPGLTRIKRNLYRRGVLSRS [P0ACP1] | 6.0472 ± 0.0054 | 5.37 ± 0.29 | 5.38 ± 0.37 | 5.16 ± 0.56 | 3.17 ± 0.32 | 5.63 ± 0.057 | 9.99 ± 0.83 | 5.65 ± 0.2 | 10.7 ± 0.77 | 5.6 ± 0.084 | 10.65 ± 0.013 | 5.87 ± 0.21
MKLISNDLRDGDKLPHRHVFNGMGYDGDNISPHLAWDDVPAGTKSFVVTCYDPDAPTGSGWWHWVVVNLPADTRVLPQGFGSGLVAMPDGVLQTRTDFGKTGYDGAAPPKGETHRYIFTVHALDIERIDVDEGASGAMVGFNVHFHSLASASITAMFS |  | 5.59 ± 0.26 | > 8 | 5.96 ± 0.2 |  | 6.07 ± 0.44 | 13.4 ± 2 | 5.42 ± 0.21 | 11.4 ± 1.1 | 6.04 ± 0.39 | 10.9 ± 2.7 | 5.79 ± 0.095
MKLKNTLLASALLSAMAFSVNAATELTPEQAAAVKPFDRVVVTGRFNAIGEAVKAVSRRADKEGAASFYVVDTSDFGNSGNWRVVADLYKADAEKAEETSNRVINGVVELPKDQAVLIEPFDTVTVQGFYRSQPEVNDAITKAAKAKGAYSFYIVRQIDANQGGNQRITAFIYKKDAKKRIVQSPDVIPADSEAGRAALAAGGEAAKKVEIPGVATTASPSSEVGRFFETQSSKGGRYTVTLPDGTKVEELNKATAAMMVPFDSIKFSGNYGNMTEVSYQVAKRAAKKGAKYYHITRQWQERGNNLTVSADLYK | 5.73 ± 0.21 | 5.99 ± 0.45 | 5.8 ± 0.2 | 5.116 ± 0.0047 | 3.13 ± 0.059 | 5.73 ± 0.11 | 10.5 ± 0.55 | 5.47 ± 0.23 | 9.68 ± 0.69 | 5.61 ± 0.079 | 11.1 ± 0.13 | 5.46 ± 0.12
MKLNIRAQTAQNQHNNSPIVLVHGLFGSLDNLGVLARDLVNDHNIIQVDMRNHGLSPRDPVMNYPAMAQDLVDTLDAQQIDKATFIGHSMGGKAVMALTALASDRIDKLVAIDIAPVDYHVRRHDEIFAAINAVSESDAQTRQQAAAIMRQHLNEEGVIQFLLKSFVDGEWRFNVPVLWDQYPHIVGWEKIPAWDHPALFIPGGNSPYVSEQYRDDLLAQFPQARAHVIAGAGHWVHAEKPDAVLRAIRRYLND | 5.19 ± 0.27 | 5.13 ± 0.26 | 5.14 ± 0.17 | 5.07 ± 0.61 | 3.04 ± 0.12 | 5.74 ± 0.4 | 9.16 ± 2.6 | 5.02 ± 0.39 | 10 ± 1.1 | 6.53 ± 0.95 | 12.4 ± 0.16 | 5.82 ± 1.4
